{
  "source": "the DeepSol protein solubility set",
  "data": [
    {"test": "soluble on expression in E. coli; label from the status in PepcDB or PDB records", "values": [
      {"sequence": "MGSDKIHHHHHHMLSKDPRLYAFRDDLADKRFETEITAQRFIQGEKKRVNTAVAGLFKENNKKSEKQTECLLGEELLIFEQGKTMSWGQSLKDGYVGYIDTTILCTSAIKQTHIVSVPRTFQYLQADLRGPMEYPLSMGSKVSVVDETEVRGTIYAILESGKAIITRHLSPIGRVYEDYVTVAETLIHTPYLWGGVSGFGIDCSGLVQLSMMMTGKMVLRDTDMQQKTIGRVLTDSDKLKRGDLVFWNGHVAIMIDHENIIHANGYSMDVMIEPLEEAVTRIAKKYQYPIEKRRPIQEM", "soluble on expression in E. coli": "not soluble"},
      {"sequence": "MGSDKIHHHHHHMLTEQPNWLMQRAQLTPERIALIYEDQTVTFAELFAASKRMAEQLAAHSVRKGDTAAILLQNRAEMVYAVHACFLLGVKAVLLNTKLSTHERLFQLEDSGSGFLLTDSSFEKKEYEHIVQTIDVDELMKEAAEEIEIEAYMQMDATATLMYTSGTTGKPKGVQQTFGNHYFSAVSSALNLGITEQDRWLIALPLFHISGLSALFKSVIYGMTVVLHQRFSVSDVLHSINRHEVTMISAVQTMLASLLEETNRCPESIRCILLGGGPAPLPLLEECREKGFPVFQSYGMTETCSQIVTLSPEFSMEKLGSAGKPLFSCEIKIERDGQVCEPYEHGEIMVKGPNVMKSYFNRESANEASFQNGWLKTGDLGYLDNEGFLYVLDRRSDLIISGGENIYPAEVESVLLSHPAVAEAGVSGAEDKKWGKVPHAYLVLHKPVSAGELTDYCKERLAKYKIPAKFFVLDRLPRNASNKLLRNQLKDARKGELL", "soluble on expression in E. coli": "not soluble"},
      {"sequence": "MGSDKIHHHHHHMLVPMSEGDTSELDHDADHLAEGDERYLLRNKRQIRGLLQQLIDQRAVVTMHVAGRDMAVPTAVLEVDEDDDCVILDGSHNDASNRAIEQAKYLLCYAQLERVNIRFRLETPERLERDIHVAFRATLPDSLYHLQRRESYRLETPITDSPTCTIRQDAASGGNLNLQLRVIDISSGGLAVSLTTGMPLLDPQHTYRDCTLQLPDSAPIALPLTVCSQYKMTLPNGSEGFRVGMQFSDLPRGADETIQRYIFRVDRQRNARKSGVF", "soluble on expression in E. coli": "not soluble"},
      {"sequence": "MGSDKIHHHHHHMLWYDSRAQRLRERSAVWAQNQKTDPDFDGLPPKYAEELQKNILGTVVLPGDPEYDTDRMLSNPRFSAYPQVIVYCEVETDVAECLRVARALSMAVVVRSGGHSTAGFSSQNGFLIDVSRMNDVCISPEALRAWVGPGTNFGKFNAKLLPYDLHTPGGACPDVCVGGYMQGGGYGFTARIFGMNCDQVEEIRVMMTDGRIVHANAELNPDLFWAVRGGTGSNFGVLLGVKYRLYRGSTFAGFSVRWSMQTDAGVQDTATSLAWLQENFMRTGAPDTMGYQMIWAFEGPEGQAKEPVLLMRGMYRGTREELQEKLAPVLALPGATLQAIYDPQQYIDLNRILLSEPYEVPEFPADMTPMPPPEAKISRYVAKPIDAAGWKALLDYFRTSPSPYTIAAMEIYGGAIARMPKGENAFFHRDVYCDLFFDVFWLTEQEKETMLAFIAGWEAAFAPHWTGQSYQNYPSPDNPGFADEYWGDTYWLLRLIKHKYDPINLLRFPQSIQPLEWHPPGPGFPPGFRGFEDPIQAIAG", "soluble on expression in E. coli": "not soluble"},
      {"sequence": "MGSDKIHHHHHHMMDRAAIRQQARFELARRDFFYYCHLMASDFYKPSRRYLVELCNDLQGFLSDNEHNVLVINEPPRHGKSRTAGMFVQWLLGNDNDKKIMTGSYNETLSTVFSKNVRNAIQETKADEDVVVFNDIFPDTHIKYGDAAMNLWSLEGGYNNYLATSPTGTATGFGADIIIVDDLIKNAEEANNATVLEKHWEWFTNTMLSRLEEGGKIIIIMTRWHSQDLAGKALIELPKSDYKVKHISMKAYDEATDTMLCDEVLSKQAYLQKTKTMGADIASANYQQEPIDIKGRLYSGFKTYVDKPTFKRISAYTDTADTGKDYLASYIYGVTMDNEAYILDVVFTKEPMEVTEPLLAQKLAEWQVNTCDIESNNGGRGFARNVERLTQDSYQNRYTVFNWFHQSQNKQARILTNTTWAIEHIYFPENWRHRWSELYQNLMSYQREGKNAHDDAADALTGVVEAINDKIRTKAKVKRKSLYGL", "soluble on expression in E. coli": "not soluble"}
    ]}
  ]
}
